{"source": "patent US20260258121A1", "about": "“USES OF POMC-SPECIFIC ANTIBODY AND MARCHF6” (KOREA UNIVERSITY RESEARCH AND BUSINESS FOUNDATION, priority 2023, published 2026)", "key": {"[1]": {"test_system": "Gpx4", "assay": "Immunoblotting of Gpx4 in POMCha^Δ1-26-expressing N43/5 cells treated with degradation inhibitors", "format": "cell-based, mouse", "conditions": "8 hours", "procedure": "To determine whether full-length POMCha or cytosolic POMCha^[…] regulated the expression of Gpx4 protein, which was known to be degraded by ferroptosis induction, the mRNA level of Gpx4 was analyzed by qRT-PCR in […]/5 cells overexpressing full-length POMCha or cytosolic POMCha^[…], and subjected to CHX-chase assay. In addition, since Gpx4 degradation occurred through chaperone-mediated autophagy (CMA), macroautophagy, or the Ub-proteasome system, […]/5 cells overexpressing POMCha^[…] were treated with a lysosomal inhibitor such as chloroquine (CQ) or BafA1 (bafilomycin A1), a proteasome inhibitor MG132, or a macroautophagy inhibitor 3-MA (3-methyladenine), and the expression of Gpx4 protein was analyzed by immunoblotting. In addition, the expression of lysosome-associated protein 2A (Lamp2a), heat shock chaperones Hsc70 and Hsp90 was confirmed by immunoblotting in […]/5 cells overexpressing POMCha^[…], and changes in Gpx4 were analyzed by treatment with Lamp2a-specific siRNA (SCBT, sc-35791)."}, "[2]": {"test_system": "POMCha-overexpressing Marchf6-KO N43/5 cells", "assay": "Cell viability (CellTiter-Glo) of POMCha-overexpressing Marchf6-KO N43/5 cells", "format": "cell-based, mouse", "conditions": "for reduced viability of POMCha-overexpressing Marchf6-deficient N43/5 cells, effect of ectopic expression: ectopic expression by transfection", "procedure": "To understand the functional or mechanistic association between Marchf6-mediated POMC degradation and ferroptosis, lipid ROS levels were compared in N43/5 cells overexpressing POMCha using a lipid peroxidation sensor C11-BODIPY^581/591. Specifically, WT or Marchf6-KO N43/5 cells were transfected with pCH4129 (POMCha) for 48 hours, and the medium was replaced with a culture medium containing 2 μM C11-BODIPY^581/591 (Thermo Fisher Scientific, D3861). The cells were incubated at 37° C. for 30 minutes, and the fluorescent probe-treated cells were trypsinized, transferred to a 15 ml Falcon tube, washed three times with 1 ml of ice-cold PBS, and then transferred to an ice-cold round-bottom polystyrene tube (Corning, 352235). The amount of intracellular lipid ROS in […] was measured using CytoFLEX LX (Beckman Coulter) using fluorescein isothiocyanate (FITC) and analyzed using FlowJo v10.8.1 (BD Bioscience). In addition, cell viability was analyzed using a CellTiter-Glo luminescent 3D cell viability assay kit (Promega, G9241) and a multimode plate reader (TECAN, Spark 10 M). At this time, when the inhibition of cell death was evaluated, WT or Marchf6-KO N43/5 cells expressing pCH60 (empty vector) or pCH4129 (POMCha) (final concentration of […] each) were treated with 5 μM Fer-1, 20 μM Z-VAD-FMK or 40 μM Nec-1, and incubated for 24 hours, and cell viability was analyzed. In addition, the intracellular NADP(H) level was measured using a NADP/NADPH-Glo assay kit (Promega, G9081) and a multimode plate reader (TECAN, Spark 10 M). Further, LDH activity was measured using the Cytotoxicity Detection Kit Plus (LDH) (Sigma, 4744926001).\nThrough Examples, since Marchf6 mediated the degradation of POMC, it was expected that loss of Marchf6 would make POMC neurons hypersensitive to POMC-induced ferroptosis. Therefore, pCH60 (empty vector), pCH879 (Marchf63f), pCH880 (Marchf6flag^C9A), or pCH4170 (Marchf6flag^P460A) was transfected into WT or Marchf6-KO N43/5 cells, and the degree of ferroptosis induction in POMC neurons was analyzed as in Example 6-1."}, "[3]": {"test_system": "Gpx4, CHOP, Nox2, and Nox4", "assay": "Immunoblotting of Gpx4, CHOP, Nox2 and Nox4 in POMCha-overexpressing Marchf6-KO N43/5 cells", "format": "cell-based, mouse"}, "[4]": {"molecular_target": "T1, POMC (Homo sapiens, UniProt P01189)", "T1 construct": "expressed in transfected cells; host or cells: HEK293T", "T1 sequence (P01189 1-267)": "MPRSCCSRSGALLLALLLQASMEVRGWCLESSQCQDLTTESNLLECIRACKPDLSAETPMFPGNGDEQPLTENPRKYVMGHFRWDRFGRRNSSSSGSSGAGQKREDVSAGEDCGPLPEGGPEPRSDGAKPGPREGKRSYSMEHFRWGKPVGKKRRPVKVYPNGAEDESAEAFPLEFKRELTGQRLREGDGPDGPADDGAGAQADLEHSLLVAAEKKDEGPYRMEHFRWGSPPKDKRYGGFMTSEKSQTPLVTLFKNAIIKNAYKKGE", "assay": "Chemical crosslinking-based reciprocal co-immunoprecipitation assay in HEK293T cells", "format": "binding", "conditions": "DSP crosslinking", "procedure": "For the chemical crosslinking-based reciprocal co-immunoprecipitation assay, HEK293T cells were incubated at […] in a 10-cm dish plate and co-transfected with […] of pCH60 (empty vector) or pCH4129 (exogenous C-terminally hemagglutinin (ha)-tagged POMC: POMCha) and pCH879 (wild-type C-terminal triple flag-tagged Marchf6: Marchf63f) or pCH4170 (Marchf6^P460A) and incubated for 48 hours. The cells were washed with PBS, treated with 1 mM DSP [dithiobis(succinimidyl propionate)] (Thermo Fisher, 22585), and then the crosslinked cells were lysed and immunoprecipitated. The beads were washed three times with an IP-wash buffer (20 mM Tris-HCl, 137 mM NaCl, 0.1% NP-40, 2 mM EDTA, 10% glycerol) and bound proteins were eluted with a 2× SDS sample buffer. For immunoprecipitation with FLAG-agarose (Sigma-Aldrich, A2220), a 3× FLAG peptide (Protein Ark, GEN-3XFLAG-5) was used. Thereafter, the eluate was denatured and heated at 37° C. for 20 minutes, and SDS-PAGE and immunoblotting were performed using the corresponding antibody."}}, "note": "Where a SMILES comes first, the peptide text is derived from it. The star is where a group is joined. Cbz = O=C(OCc1ccccc1)*; CH2F = FC*"}
{"molecule": "CO/C1=C\\C(C)=C\\[C@@H](C)[C@@H](O)[C@@H](C)C/C(C)=C/C=C/[C@H](OC)[C@@H]([C@@H](C)[C@@H](O)[C@H](C)[C@@]2(O)C[C@@H](O)[C@H](C)[C@@H](C(C)C)O2)OC1=O", "note": "[BafA1, bafilomycin A1]", "values": [{"measurement": "Gpx4 downregulation in POMCha^Δ1-26-expressing N43/5 cells, effect of treatment", "setting": "[1]; BafA1 100 nM", "result": "restored"}]}
{"molecule": "CN1C(=O)C(Cc2c[nH]c3ccccc23)NC1=S", "note": "(stereo not drawn) [Nec-1, necrostatin-1, reference compound]", "values": [{"measurement": "decreased viability of POMCha-overexpressing Marchf6-KO N43/5 cells, effect of treatment", "setting": "[2]; 40 μM Nec-1, 24 hours", "result": "not restored"}]}
{"molecule": "COC(=O)C[C@H](NC(=O)[C@H](C)NC(=O)[C@@H](NC(=O)OCc1ccccc1)C(C)C)C(=O)CF", "note": "[Z-VAD, Z-VAD-FMK, reference compound] (Cbz-Val-Ala-Asp(OMe)-CH2F)", "values": [{"measurement": "decreased viability of POMCha-overexpressing Marchf6-KO N43/5 cells, effect of treatment", "setting": "[2]; 20 μM Z-VAD-FMK, 24 hours", "result": "not restored"}]}
{"molecule": "CCN(CC)CCCC(C)Nc1ccnc2cc(Cl)ccc12", "note": "(stereo not drawn) [CQ, chloroquine]", "values": [{"measurement": "Gpx4 downregulation in POMCha^Δ1-26-expressing N43/5 cells, effect of treatment", "setting": "[1]; CQ 50 μM", "result": "restored"}]}
{"molecule": "Marchf63f^P460A: POMC-inaccessible Marchf6 mutant with Pro460-to-Ala mutation in the POMC-interacting region (pCH4170) (protein, UniProt Q6ZQ89 1-909, looked up, variant P460A, C-terminal triple FLAG tag) E3 ubiquitin-protein ligase …: MDTAEEDICRVCRSEGTPEKPLYHPCVCTGSIKFIHQECLVQWLKHSRKEYCELCKHRFAFTPIYSPDMPSRLPIQDIFAGLVTSIGTAIRYWFHYTLVAFAWLGVVPLTACRIYKCLFTGSVSSLLTLPLDMLSTENLLADCLQGCFVVTCTLCAFISLVWLREQIVHGGAPIWLEHAAPPFNAAGHHQNEAPVGGNGAENPAADQPANPAGENAVLGENPDAQDGQAEEEEEDNEEEDDAGVEDAADANNGAQDDMNWNALEWDRAAEELTWERMLGLDGSLVFLEHVFWVVSLNTLFILVFAFCPYHIGHFSLVGLGFEEHVQASHFEGLITTIVGYILLAITLIICHALATLVKFHRSRRLLGVCYIVVKVSLLVVVEIGVFPLICGWWLDICSLEMFDATLKDRELSFQSAPGTTMFLHWLVGMVYVFYFASFILLLREVLRPGVLWFLRNLNDADFNPVQEMIHLPIYRHLRRFILSVIVFGSIVLLMLWLPIRIIKSLLPNFLPYNVMLYSDAPVSELSLELLLLQVVLPALLEQGHTRQWLKGLVRAWTVTAGYLLDLHSYLLGDQEENENSANQQVNNNQPARNNNAVPAGEGLHAAHQAILQQGGPVGFQPYRRPLNFPLRIFLLIVFMCITLLIASLICLTLPVFAGRWLMSFWTGTAKIHELYTAACGLYVCWLTIRAVTVLVAWMPQGRRVIFQKVKEWSLMIMKTLIVAVLLAGVVPLLLGLLFELVIVAPLRVPLDQTPLFYPWQDWALGVLHAKIIAAITLMGPQWWLKTVIEQVYANGIRNIDLHYIIRKLAAPVISVLLLSLCVPYVIASGAVPLLGVTAEMQNLVHRRIYPFLLMVVVLMGILSFQVRQFKRLYEHIKNDKYLVGQRLVNYERKSGKQGPSTPPPVSSQE", "values": [{"measurement": "expression levels of Gpx4, CHOP, Nox2, and Nox4 proteins, effect of expression of construct", "setting": "[3]", "result": "not restored"}, {"measurement": "reduced viability of POMCha-overexpressing Marchf6-deficient N43/5 cells, effect of ectopic expression", "setting": "[2]", "result": "not restored"}, {"measurement": "binding of full-length POMC (co-immunoprecipitation)", "setting": "[4]", "result": "did not bind"}]}
{"molecule": "Marchf63f^C9A: catalytically inactive Marchf6 mutant (pCH880) (protein, UniProt Q6ZQ89 1-909, looked up, variant C9A, C-terminal triple FLAG tag) E3 ubiquitin-protein ligase …: MDTAEEDIARVCRSEGTPEKPLYHPCVCTGSIKFIHQECLVQWLKHSRKEYCELCKHRFAFTPIYSPDMPSRLPIQDIFAGLVTSIGTAIRYWFHYTLVAFAWLGVVPLTACRIYKCLFTGSVSSLLTLPLDMLSTENLLADCLQGCFVVTCTLCAFISLVWLREQIVHGGAPIWLEHAAPPFNAAGHHQNEAPVGGNGAENPAADQPANPAGENAVLGENPDAQDGQAEEEEEDNEEEDDAGVEDAADANNGAQDDMNWNALEWDRAAEELTWERMLGLDGSLVFLEHVFWVVSLNTLFILVFAFCPYHIGHFSLVGLGFEEHVQASHFEGLITTIVGYILLAITLIICHALATLVKFHRSRRLLGVCYIVVKVSLLVVVEIGVFPLICGWWLDICSLEMFDATLKDRELSFQSAPGTTMFLHWLVGMVYVFYFASFILLLREVLRPGVLWFLRNLNDPDFNPVQEMIHLPIYRHLRRFILSVIVFGSIVLLMLWLPIRIIKSLLPNFLPYNVMLYSDAPVSELSLELLLLQVVLPALLEQGHTRQWLKGLVRAWTVTAGYLLDLHSYLLGDQEENENSANQQVNNNQPARNNNAVPAGEGLHAAHQAILQQGGPVGFQPYRRPLNFPLRIFLLIVFMCITLLIASLICLTLPVFAGRWLMSFWTGTAKIHELYTAACGLYVCWLTIRAVTVLVAWMPQGRRVIFQKVKEWSLMIMKTLIVAVLLAGVVPLLLGLLFELVIVAPLRVPLDQTPLFYPWQDWALGVLHAKIIAAITLMGPQWWLKTVIEQVYANGIRNIDLHYIIRKLAAPVISVLLLSLCVPYVIASGAVPLLGVTAEMQNLVHRRIYPFLLMVVVLMGILSFQVRQFKRLYEHIKNDKYLVGQRLVNYERKSGKQGPSTPPPVSSQE", "values": [{"measurement": "expression levels of Gpx4, CHOP, Nox2, and Nox4 proteins, effect of expression of construct", "setting": "[3]", "result": "not restored"}, {"measurement": "reduced viability of POMCha-overexpressing Marchf6-deficient N43/5 cells, effect of ectopic expression", "setting": "[2]", "result": "not restored"}]}
